Changes are numbered by the printed parent chain. Numbers in names are those of the source.
Tests used:
human claudin 18.2 [1] = target: T1, human claudin 18.2 (human, UniProt P56856-2 1-261); test: flow cytometry on SK-CO-1 cells, 1 hour at 37 °C
T1 construct: whole, on cells; also called CLDN18.2
T1 sequence (looked up): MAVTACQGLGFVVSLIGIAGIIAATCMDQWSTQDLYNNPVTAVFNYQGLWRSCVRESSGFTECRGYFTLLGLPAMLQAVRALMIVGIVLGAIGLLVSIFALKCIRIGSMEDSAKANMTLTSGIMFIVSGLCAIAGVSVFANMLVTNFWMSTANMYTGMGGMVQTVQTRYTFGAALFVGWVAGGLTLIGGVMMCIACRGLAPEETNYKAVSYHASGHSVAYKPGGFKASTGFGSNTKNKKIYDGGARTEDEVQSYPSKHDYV

human claudin 18.2 [2] = target: T1, human claudin 18.2; test: flow cytometry on NCI-H146 cells, 1 hr at 37 °C
human claudin 18.2 [3] = target: T1, human claudin 18.2; test: flow cytometry on GSU cells, 1 hr at 37 °C
[4] = target: T2, prostate specific membrane antigen (PSMA) (human, UniProt Q04609 1-750); test: cell-based or functional assay
[5] = target: T2, prostate specific membrane antigen …; test: flow cytometry on LNCaP cells, 30 min at 37 °C
Human CD3 epsilon [6] = target: T3, Human CD3 epsilon (human, UniProt P07766 23-207); test: flow cytometry on human PAN-T cells, 60 min at 4 °C
T3 construct: Stood on human T cells (pan-T cells, isolated donor T cells) as part of the TCR/CD3 complex; the other chains of the complex are not written here; also called CD3ε; CD3R

Human CD3 epsilon [7] = target: T3, Human CD3 epsilon; test: flow cytometry on primary T cells, 1 hour at 37 °C
cynomolgus monkey CD3 = target: T4, cynomolgus monkey CD3 (cynomolgus monkey, UniProt Q95LI5 22-198); test: not described
T4 construct: whole, on cells; also called cyno CD3; NHP CD3

human GUCY2C [8] = target: T5, human GUCY2C (human, UniProt P25092 24-1073); test: flow cytometry on T84 cells, 1 hour at 37 °C
T5 construct: whole, on cells; also called huGUCY2C; guanylate cyclase 2C

human GUCY2C [9] = target: T5, human GUCY2C; test: cell-based or functional assay
human GUCY2C [10] = target: T5, human GUCY2C; test: flow cytometry on CHO-huGUCY2C cells, 60 min at 37 °C
cyno GUCY2C = cyno GUCY2C (cynomolgus monkey, UniProt A0A2K5TZ02 16-1015); test: flow cytometry on CHO-cynoGUCY2C cells, 60 min at 37 °C
Chain of cyno GUCY2C (A0A2K5TZ02 entry or part of it): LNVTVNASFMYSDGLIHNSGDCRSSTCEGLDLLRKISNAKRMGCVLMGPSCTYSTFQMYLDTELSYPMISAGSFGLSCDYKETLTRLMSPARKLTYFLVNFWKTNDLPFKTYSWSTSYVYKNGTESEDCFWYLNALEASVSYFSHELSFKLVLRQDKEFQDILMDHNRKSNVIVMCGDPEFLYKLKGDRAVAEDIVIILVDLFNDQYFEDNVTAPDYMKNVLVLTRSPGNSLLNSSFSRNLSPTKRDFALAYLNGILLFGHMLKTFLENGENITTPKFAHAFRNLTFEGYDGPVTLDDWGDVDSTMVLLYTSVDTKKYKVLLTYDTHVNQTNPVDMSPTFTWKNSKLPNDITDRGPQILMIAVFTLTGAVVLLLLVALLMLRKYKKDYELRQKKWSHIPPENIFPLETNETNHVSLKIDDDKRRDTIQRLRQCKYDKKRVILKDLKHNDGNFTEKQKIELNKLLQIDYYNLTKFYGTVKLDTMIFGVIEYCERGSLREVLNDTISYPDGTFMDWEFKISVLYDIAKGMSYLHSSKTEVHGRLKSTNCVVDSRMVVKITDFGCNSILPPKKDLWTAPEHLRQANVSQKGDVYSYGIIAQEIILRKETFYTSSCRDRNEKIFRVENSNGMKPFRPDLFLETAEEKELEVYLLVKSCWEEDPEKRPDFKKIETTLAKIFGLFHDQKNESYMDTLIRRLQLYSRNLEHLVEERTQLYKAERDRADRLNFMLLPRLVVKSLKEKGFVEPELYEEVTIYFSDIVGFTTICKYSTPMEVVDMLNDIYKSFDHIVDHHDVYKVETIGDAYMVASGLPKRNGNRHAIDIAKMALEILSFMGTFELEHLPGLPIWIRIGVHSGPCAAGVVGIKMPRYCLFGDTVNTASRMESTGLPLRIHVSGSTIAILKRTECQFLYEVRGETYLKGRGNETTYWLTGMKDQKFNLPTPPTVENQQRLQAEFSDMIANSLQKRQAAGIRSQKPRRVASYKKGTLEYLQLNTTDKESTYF

T2 sequence (Q04609 whole entry): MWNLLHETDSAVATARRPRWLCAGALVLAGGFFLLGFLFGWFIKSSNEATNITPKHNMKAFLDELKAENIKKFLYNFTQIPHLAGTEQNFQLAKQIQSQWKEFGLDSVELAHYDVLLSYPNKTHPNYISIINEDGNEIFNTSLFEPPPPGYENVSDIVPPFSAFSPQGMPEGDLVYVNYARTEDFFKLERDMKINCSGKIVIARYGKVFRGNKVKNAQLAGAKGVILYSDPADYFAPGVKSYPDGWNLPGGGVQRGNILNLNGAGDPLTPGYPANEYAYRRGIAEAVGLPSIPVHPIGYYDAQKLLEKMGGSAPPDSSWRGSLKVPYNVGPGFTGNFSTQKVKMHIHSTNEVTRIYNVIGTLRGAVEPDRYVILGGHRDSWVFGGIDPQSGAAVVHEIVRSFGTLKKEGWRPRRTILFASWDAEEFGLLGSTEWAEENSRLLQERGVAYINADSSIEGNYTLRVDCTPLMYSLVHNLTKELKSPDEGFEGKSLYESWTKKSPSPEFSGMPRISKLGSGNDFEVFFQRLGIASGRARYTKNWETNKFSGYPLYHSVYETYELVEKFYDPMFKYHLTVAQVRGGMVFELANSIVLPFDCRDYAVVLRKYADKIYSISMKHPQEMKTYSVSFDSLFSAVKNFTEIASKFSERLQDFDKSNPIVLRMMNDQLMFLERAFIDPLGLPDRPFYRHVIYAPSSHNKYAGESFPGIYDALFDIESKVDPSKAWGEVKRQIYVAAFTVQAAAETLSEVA
T5 sequence (P25092 24-1073): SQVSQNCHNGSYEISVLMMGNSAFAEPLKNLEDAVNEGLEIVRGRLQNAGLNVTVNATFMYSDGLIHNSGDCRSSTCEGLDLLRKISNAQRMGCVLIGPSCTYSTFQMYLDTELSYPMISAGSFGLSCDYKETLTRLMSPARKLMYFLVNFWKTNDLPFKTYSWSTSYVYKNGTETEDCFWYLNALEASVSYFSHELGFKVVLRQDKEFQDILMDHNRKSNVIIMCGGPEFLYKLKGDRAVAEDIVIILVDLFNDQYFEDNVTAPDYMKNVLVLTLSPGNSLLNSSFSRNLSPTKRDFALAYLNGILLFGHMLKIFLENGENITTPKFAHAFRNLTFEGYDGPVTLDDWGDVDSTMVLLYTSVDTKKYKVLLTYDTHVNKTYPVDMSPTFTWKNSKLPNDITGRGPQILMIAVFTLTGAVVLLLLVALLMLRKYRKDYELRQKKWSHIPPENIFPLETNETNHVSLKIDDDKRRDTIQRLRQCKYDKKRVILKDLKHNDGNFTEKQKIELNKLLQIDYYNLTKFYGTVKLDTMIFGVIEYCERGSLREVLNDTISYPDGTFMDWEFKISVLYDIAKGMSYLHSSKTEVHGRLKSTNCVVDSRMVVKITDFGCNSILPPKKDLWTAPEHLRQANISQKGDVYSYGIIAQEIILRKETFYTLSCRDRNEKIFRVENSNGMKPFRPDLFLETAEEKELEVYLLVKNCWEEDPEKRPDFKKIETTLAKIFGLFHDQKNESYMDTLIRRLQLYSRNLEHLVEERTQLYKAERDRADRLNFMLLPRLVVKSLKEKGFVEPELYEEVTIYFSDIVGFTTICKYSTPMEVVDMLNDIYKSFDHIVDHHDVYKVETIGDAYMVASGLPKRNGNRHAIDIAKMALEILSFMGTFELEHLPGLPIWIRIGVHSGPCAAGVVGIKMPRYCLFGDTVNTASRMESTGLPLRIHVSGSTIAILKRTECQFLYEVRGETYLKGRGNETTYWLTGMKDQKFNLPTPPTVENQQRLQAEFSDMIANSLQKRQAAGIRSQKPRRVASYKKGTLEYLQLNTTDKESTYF
T3 sequence (P07766 23-207 limits assumed): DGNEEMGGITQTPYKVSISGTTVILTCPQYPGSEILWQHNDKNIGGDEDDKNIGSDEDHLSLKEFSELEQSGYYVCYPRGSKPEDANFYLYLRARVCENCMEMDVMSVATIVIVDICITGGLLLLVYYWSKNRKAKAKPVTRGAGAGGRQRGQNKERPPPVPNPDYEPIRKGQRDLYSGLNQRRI
T4 sequence (Q95LI5 22-198): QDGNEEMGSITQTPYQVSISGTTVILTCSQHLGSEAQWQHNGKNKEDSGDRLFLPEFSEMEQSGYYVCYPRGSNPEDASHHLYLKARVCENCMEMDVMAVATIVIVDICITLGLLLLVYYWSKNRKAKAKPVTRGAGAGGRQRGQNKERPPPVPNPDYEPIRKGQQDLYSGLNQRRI

B1: CLDN18.2xCD3 bisp-Ab4 (bispecific antibody)
heavy: EVQLLESGGGLVQPGGSLRLSCAASGFIFSNYYMAWVRLAPGKGLEWVSSISIGGGKSHYADSVKGRFTISRDNSKNTLYLQMNSLRAEDTAVYYCVRHPQLGPNPFDYWGQGTLVTVSSASTKGPSVFPLAPSSKSTSGGTAALGCLVKDYFPEPVTVSWNSGALTSGVHTFPAVLQSSGLYSLSSVVTVPSSSLGTQTYICNVNHKPSNTKVDKKVEPKSCDKTHTCPPCPAPEAAGGPSVFLFPPKPKDTLMISRTPEVTCVVVSVSHEDPEVKFNWYVDGVEVHNAKTKPREEQYNSTYRVVSVLTVLHQDWLNGKEYKCKVSNKALPAPIEKTISKAKGQPREPQVYTLPPSREEMTKNQVSLSCAVKGFYPSDIAVEWESNGQPENNYKTTPPVLDSDGSFFLVSKLTVDKSRWQQGNVFSCSVMHEALHNRFTQKSLSLSPGK
light: DIQMTQSPSSLSASVGDRVTITCRASQSVTISSVDLMNWYQQKPGKAPKLLIYRASNLASGIPSRFSGSGSGTDFTLTISSLQPEDFATYYCQQSRESPYTFGQGTKLEIKRTVAAPSVFIFPPSDEQLKSGTASVVCLLNNFYPREAKVQWKVDNALQSGNSQESVTEQDSKDSTYSLSSTLTLSKADYEKHKVYACEVTHQGLSSPVTKSFNRGEC
chain: EIVLTQSPATLSASPGERVTLSCSASSSVSYMNWYQQKPGCAPRRWIYDSSKLASGVPARFSGSGSGRDYTLTISSLEPEDFAVYYCQQWSRNPPTFGGGTKVEIKGGGSGGSGGCPPCGGSGGQVQLVQSGAEVKKPGSSVKVSCKASGYTFTRSTMHWVKQAPGQGLEWIGYINPSSAYTNYNQKFQGRVTLTADKSTSTAYMELSSLRSEDTAVYYCASPQVHYDYAGFPYWGCGTLVTVSS
notes: The entry for the CD3 arm holds only the spFv; also called CLDN18.2×CD3 bisp-Ab4; not shown: IgG1 hinge-CH2-CH3 with L234A/L235A/D265S and heterodimerization mutations
EC50 (human claudin 18.2 [1]): 41.3 nM
EC50 (human claudin 18.2 [2]): 23 nM
EC50 (human claudin 18.2 [3]): 74 nM

B2: CLDN18.2xCD3 bisp-Ab3 (bispecific antibody)
heavy: B1 heavy with L102S
light: B1 light
chain: B1 chain
notes: The entry for the CD3 arm holds only the spFv; not shown: IgG1 hinge-CH2-CH3 with L234A/L235A/D265S and heterodimerization mutations
EC50 (human claudin 18.2 [1]): 229 nM

B3: CLDN18.2xCD3 bisp-Ab2 (bispecific antibody)
heavy: B1 heavy with Q101S
light: B1 light
chain: B1 chain
notes: as for B2
EC50 (human claudin 18.2 [1]): 193 nM

B4: CLDN18.2xCD3 bisp-Ab1 (bispecific antibody)
heavy: B1 heavy with H59S
light: B1 light
chain: B1 chain
notes: not shown: IgG1 hinge-CH2-CH3 with L234A/L235A/D265S and heterodimerization mutations
EC50 (human claudin 18.2 [1]): 12.7 nM

B5: stapled PSMA×CD3 antibody (PS3B2040) (bispecific antibody, human IgG1, lambda, L234A L235A)
heavy: EVQLVESGGGLVQPGGSLRLSCAASGFTFSSYAMSWVRQAPGKGLEWVSAISGGIGSTYYADSVKGRFTISRDNSKNTLWLQMNSLRAEDTAVYYCAKDAVGATPYYFDYWGQGTLVTVSSASTKGPSVFPLAPSSKSTSGGTAALGCLVKDYFPEPVTVSWNSGALTSGVHTFPAVLQSSGLYSLSSVVTVPSSSLGTQTYICNVNHKPSNTKVDKKVEPKSCDKTHTCPPCPAPEAAGGPSVFLFPPKPKDTLMISRTPEVTCVVVSVSHEDPEVKFNWYVDGVEVHNAKTKPREEQYNSTYRVVSVLTVLHQDWLNGKEYKCKVSNKALPAPIEKTISKAKGQPREPQVYTLPPSREEMTKNQVSLSCAVKGFYPSDIAVEWESNGQPENNYKTTPPVLDSDGSFFLVSKLTVDKSRWQQGNVFSCSVMHEALHNRFTQKSLSLSPGK
light: QSVLTQPPSVSAAPGQKVTISCSGSSSNIGINYVSWYQQLPGTAPKLLIYDNNKRPSGIPDRFSGSKSGTSATLGITGLQTGDEADYYCGTWDSSLSAVVFGGGTKLTVLGQPKAAPSVTLFPPSSEELQANKATLVCLISDFYPGAVTVAWKADSSPVKAGVETTTPSKQSNNKYAASSYLSLTPEQWKSHRSYSCQVTHEGSTVEKTVAPTECS
chain: EIVLTQSPATLSASPGERVTLSCSASSSVSYMNWYQQKPGCAPRRWIYDSSKLASGVPARFSGSGSGRDYTLTISSLEPEDFAVYYCQQWSRNPPTFGGGTKVEIKGGGSGGSGGCPPCGGSGGQVQLVQSGAEVKKPGSSVKVSCKASGYTFTRSTMHWVKQAPGQGLEWIGYINPSSAYTNYNQKFQGRVTLTADKSTSTAYMELSSLRSEDTAVYYCASPQVHYDYAGFPYWGCGTLVTVSSEPKSSDKTHTCPPCPAPEAAGGPSVFLFPPKPKDTLMISRTPEVTCVVVSVSHEDPEVKFNWYVDGVEVHNAKTKPREEQYNSTYRVVSVLTVLHQDWLNGKEYKCKVSNKALPAPIEKTISKAKGQPREPQVYTLPPSREEMTKNQVSLWCLVKGFYPSDIAVEWESNGQPENNYKTTPPVLDSDGSFFLYSKLTVDKSRWQQGNVFSCSVMHEALHNHYTQKSLSLSPGK
notes: HC1/LC1 = anti-PSMA Fab arm (PSMB896-G100A-Fab); HC2 = anti-CD3 spFv-Fc (CD3B2030 N106A, VL-linker-VH); knob-in-hole IgG1; also called stapled PSMA×CD3 bispecific
cytotoxicity EC50 (% tumor lysis, Incucyte), LNCaP cells with human PBMCs, E:T 3:1 [4]: 0.051 nM
cytotoxicity EC50 (% tumor lysis, Incucyte), LNCaP cells with human Pan T cells, E:T 3:1 [4]: 0.06 nM
EC50 [5]: 11.6 nM
binding result (Human CD3 epsilon [6]): binds

B6: GUCY2C×CD3_biAb-1 (bispecific antibody, human IgG1, kappa, L234A L235A)
heavy: QVQLQESGPGLVKPSETLSLTCTVSGASISHYYWSWIRRPAGKGLEWIGRIYTSGSTNYNPSLKSRVTVSVDTSKNQFSLKLSSVTAADTAVYYCARDRYTGYFDLWGRGTLVTVSSASTKGPSVFPLAPSSKSTSGGTAALGCLVKDYFPEPVTVSWNSGALTSGVHTFPAVLQSSGLYSLSSVVTVPSSSLGTQTYICNVNHKPSNTKVDKKVEPKSCDKTHTCPPCPAPEAAGGPSVFLFPPKPKDTLMISRTPEVTCVVVSVSHEDPEVKFNWYVDGVEVHNAKTKPREEQYNSTYRVVSVLTVLHQDWLNGKEYKCKVSNKALPAPIEKTISKAKGQPREPQVYTLPPSREEMTKNQVSLSCAVKGFYPSDIAVEWESNGQPENNYKTTPPVLDSDGSFFLVSKLTVDKSRWQQGNVFSCSVMHEALHNRFTQKSLSLSPGK
light: not shown
chain: B5 chain
notes: HC2 = CD3_spFv-1-Fc (knob); IgG1 with L234A/L235A/D265S; also called GUCY2CxCD3 bisp-Ab1; GUCY2C-CD3-bisp-Ab1
EC50 (Human CD3 epsilon [7]): 108 nM
binding result (cynomolgus monkey CD3): no binding
EC50 (human GUCY2C [8]): 12 nM
Tumor killing EC50 (nM), HT-55 (human GUCY2C [9]): 0.8 nM
Tumor killing EC50 (nM), LS1034 (human GUCY2C [9]): 0.04 nM

B7: GUCY2C_mAb (antibody, V domains shown)
VH: QVQLQESGPGLVKPSETLSLTCTVSGASISHYYWSWIRRPAGKGLEWIGRIYTSGSTNYNPSLKSRVTVSVDTSKNQFSLKLSSVTAADTAVYYCARDRYTGYFDLWGRGTLVTVSS
VL: not shown
notes: also called GUCYC2_mAb
EC50 (human GUCY2C [10]): 4.6 nM
EC50 (cyno GUCY2C): 8.7 nM

From US20250136688A1 (Janssen / Centocor, published 2025)
